In paper PMC2139871:

Tests used:
[1] = target: cytoplasmic dynein 74-kD intermediate chain (mouse (endogenous in J774)) (UniProt O88487); experiment: co-IP
[2] = target: actin-related protein Arp1 of the dynactin complex (mouse (endogenous in J774)) (UniProt P61164); experiment: co-IP
Sequence of UniProt P61164 (P61164 whole entry, one chain of several): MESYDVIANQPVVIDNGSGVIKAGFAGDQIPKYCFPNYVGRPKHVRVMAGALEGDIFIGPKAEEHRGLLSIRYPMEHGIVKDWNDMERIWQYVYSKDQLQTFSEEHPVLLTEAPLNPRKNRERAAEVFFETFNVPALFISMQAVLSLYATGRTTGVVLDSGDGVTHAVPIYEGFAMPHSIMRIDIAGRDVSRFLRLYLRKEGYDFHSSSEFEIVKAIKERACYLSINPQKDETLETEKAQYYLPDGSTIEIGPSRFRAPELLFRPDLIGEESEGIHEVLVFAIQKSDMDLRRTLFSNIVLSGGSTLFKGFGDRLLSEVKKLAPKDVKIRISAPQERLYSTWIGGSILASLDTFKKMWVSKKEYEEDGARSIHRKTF

Sequence of UniProt O88487 (O88487 whole entry): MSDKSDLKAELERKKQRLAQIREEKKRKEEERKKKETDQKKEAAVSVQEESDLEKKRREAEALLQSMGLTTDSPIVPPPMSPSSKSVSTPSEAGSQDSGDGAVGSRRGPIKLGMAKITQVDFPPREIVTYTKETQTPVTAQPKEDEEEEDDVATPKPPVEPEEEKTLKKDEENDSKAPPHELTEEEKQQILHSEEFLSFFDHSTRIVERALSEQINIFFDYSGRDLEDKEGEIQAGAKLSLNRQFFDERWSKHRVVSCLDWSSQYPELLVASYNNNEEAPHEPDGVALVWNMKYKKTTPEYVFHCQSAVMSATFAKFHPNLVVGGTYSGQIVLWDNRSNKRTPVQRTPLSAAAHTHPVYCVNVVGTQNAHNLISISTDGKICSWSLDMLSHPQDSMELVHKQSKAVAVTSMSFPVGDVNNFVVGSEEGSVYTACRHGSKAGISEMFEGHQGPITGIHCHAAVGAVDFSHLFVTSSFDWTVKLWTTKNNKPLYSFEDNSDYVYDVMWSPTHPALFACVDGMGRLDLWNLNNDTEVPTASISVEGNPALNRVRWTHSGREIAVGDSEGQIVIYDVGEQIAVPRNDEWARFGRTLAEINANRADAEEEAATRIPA

percent removed from cytosol by immunodepletion of the bait [1] [%] | percent removed from cytosol by immunodepletion of the bait [2] [%] | Substance
80 |  | cytoplasmic dynein heavy chain (from UniProt Q9JHU4 1-4644) (natural protein)
 | 95 | dynactin subunit p150^Glued (from UniProt O08788 1-1281) (natural protein)
